According to patent US20180057604A1 (Genentech, published 2018):
Substitutions are numbered along the chain they refer to. Names may count otherwise. Read-outs that look alike come from different tables or passages of the source. Values belong to the binder of their own block, whether it stands above or below them.

How the values were obtained:
[1] = biological target: T1, human BACE1 ECD; test: Octet, pH 5.0, second run
T1 construct: analyte of the Octet assay (200 nM) and enzyme of the first short substrate assay; also called human BACE1 extracellular domain

[2] = biological target: T2, murine BACE1 ECD; test: Octet, pH 5.0, second run
T2 construct: analyte of the Octet assay (200 nM) and enzyme of the first short substrate assay

[3] = biological target: T1, human BACE1 ECD; test: Octet, pH 7.5, second run
[4] = biological target: T2, murine BACE1 ECD; test: Octet, pH 7.5, second run
[5] = biological target: T1, human BACE1 ECD; test: Octet, pH 5.0;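 note: antibodies captured on anti-human capture sensor tips, dissociation monitored in PBS with BSA buffer, kinetics fitted with a one-to-one binding model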
[6] = biological target: T2, murine BACE1 ECD; test: Octet, pH 5.0;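 note: antibodies captured on anti-human capture sensor tips, dissociation monitored in PBS with BSA buffer, kinetics fitted with a one-to-one binding model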
[7] = biological target: T3, BACE1 in primary mouse cortical neurons (mouse, UniProt P56818 46-501); test: cell-based or functional assay
[8] = biological target: T1, human BACE1 ECD; test: cell-based or functional assay
[9] = biological target: T2, murine BACE1 ECD; test: cell-based or functional assay
[10] = biological target: T4, human BACE1 (R&D Systems) (human, UniProt P56817); test: SPR (Biacore)
T4 construct: recombinant, commercial (R&D Systems)

[11] = biological target: T1, human BACE1 ECD; test: Octet, pH 7.5;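 note: antibodies captured on anti-human capture biosensor tips, dissociation followed in PBS with BSA buffer, kinetics fitted with a one-to-one binding model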
[12] = biological target: T2, murine BACE1 ECD; test: Octet, pH 7.5;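 note: antibodies captured on anti-human capture biosensor tips, dissociation followed in PBS with BSA buffer, kinetics fitted with a one-to-one binding model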
[13] = biological target: BACE1 (HTRF long substrate and FRET short substrate assays of Example 9D); test: cell-based or functional assay
[14] = biological target: T3, BACE1 in primary mouse cortical neurons; test: cell-based or functional assay; remark: listed apart in the source
[15] = biological target: T5, cyno TfR extracellular domain (analogous construct to human TfR ecd) (cynomolgus monkey, UniProt Q5RDH6 87-760 (Pongo abelii entry)); test: SPR, TfR captured by anti-His, Fab injected;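 for KD: single cycle kinetics with a Fab dilution series, fitted by a one-to-one Langmuir model or a steady state model, KD taken as koff over kon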
T5 construct: also called cynoTfR ecd
T5 chain: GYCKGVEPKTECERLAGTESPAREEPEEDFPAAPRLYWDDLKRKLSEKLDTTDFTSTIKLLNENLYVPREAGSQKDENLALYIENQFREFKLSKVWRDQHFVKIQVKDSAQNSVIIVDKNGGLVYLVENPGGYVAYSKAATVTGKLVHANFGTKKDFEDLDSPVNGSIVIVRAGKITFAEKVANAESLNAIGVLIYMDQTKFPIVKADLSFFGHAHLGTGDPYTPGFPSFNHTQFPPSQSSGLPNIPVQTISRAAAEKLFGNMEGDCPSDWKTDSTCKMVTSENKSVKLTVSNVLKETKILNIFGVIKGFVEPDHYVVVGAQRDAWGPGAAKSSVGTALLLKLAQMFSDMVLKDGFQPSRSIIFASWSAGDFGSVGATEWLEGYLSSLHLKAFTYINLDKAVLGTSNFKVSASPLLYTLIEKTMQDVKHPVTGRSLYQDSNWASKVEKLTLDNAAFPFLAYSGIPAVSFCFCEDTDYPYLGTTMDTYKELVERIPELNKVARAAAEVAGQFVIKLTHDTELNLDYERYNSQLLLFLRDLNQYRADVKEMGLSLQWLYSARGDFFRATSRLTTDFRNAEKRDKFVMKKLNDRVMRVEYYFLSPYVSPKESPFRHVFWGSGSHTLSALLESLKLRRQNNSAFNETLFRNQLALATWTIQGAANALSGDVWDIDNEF

[16] = biological target: T6, human TfR extracellular domain with N-terminal His tag (human, UniProt P02786 89-760); test: SPR, TfR captured by anti-His, Fab injected;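 for KD: single cycle kinetics with a Fab dilution series, fitted by a one-to-one Langmuir model or a steady state model, KD taken as koff over kon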
T6 construct: Biotinylated in some assays; also called huTfR; HuTfR

[17] = biological target: T5, cyno TfR extracellular domain …; test: SPR, KD on cyno TfR over KD on human TfR
[18] = biological target: T5, cyno TfR extracellular domain …; test: ELISA, IgG
[19] = biological target: T6, human TfR extracellular domain with …; test: ELISA, IgG
[20] = biological target: T5, cyno TfR extracellular domain …; test: SPR SCK 1:1 fit, IgG
[21] = biological target: T6, human TfR extracellular domain with …; test: SPR SCK 1:1 fit, IgG
[22] = biological target: T5, cyno TfR extracellular domain …; test: SPR steady state, IgG
[23] = biological target: T6, human TfR extracellular domain with …; test: SPR steady state, IgG
[24] = biological target: T5, cyno TfR extracellular domain …; test: SPR, TfR captured by anti-His, Fab injected;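 for KD: single cycle kinetics with a Fab dilution series, fitted by a one-to-one Langmuir model or a steady state model, KD taken as koff over kon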
[25] = biological target: T6, human TfR extracellular domain with …; test: SPR, TfR captured by anti-His, Fab injected; remark: listed apart in the source;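 for KD: single cycle kinetics with a Fab dilution series, fitted by a one-to-one Langmuir model or a steady state model, KD taken as koff over kon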
[26] = biological target: T5, cyno TfR extracellular domain …; test: SPR, KD on cyno TfR over KD on human TfR
[27] = biological target: T5, cyno TfR extracellular domain …; test: SPR, Fab
[28] = biological target: T6, human TfR extracellular domain with …; test: SPR, Fab

T1 sequence (single chain, as listed by the source limits assumed): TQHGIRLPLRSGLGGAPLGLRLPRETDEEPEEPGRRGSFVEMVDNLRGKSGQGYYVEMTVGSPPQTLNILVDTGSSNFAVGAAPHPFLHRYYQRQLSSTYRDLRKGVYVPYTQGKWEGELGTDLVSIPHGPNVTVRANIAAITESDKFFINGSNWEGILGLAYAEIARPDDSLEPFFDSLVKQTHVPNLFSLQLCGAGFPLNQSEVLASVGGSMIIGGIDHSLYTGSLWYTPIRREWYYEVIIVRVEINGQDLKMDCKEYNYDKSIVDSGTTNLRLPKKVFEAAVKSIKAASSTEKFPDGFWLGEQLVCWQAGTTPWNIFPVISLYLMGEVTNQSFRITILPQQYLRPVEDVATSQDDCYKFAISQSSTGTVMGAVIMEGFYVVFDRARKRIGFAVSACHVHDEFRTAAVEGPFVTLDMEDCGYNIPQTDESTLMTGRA
T2 sequence (single chain, as listed by the source limits assumed): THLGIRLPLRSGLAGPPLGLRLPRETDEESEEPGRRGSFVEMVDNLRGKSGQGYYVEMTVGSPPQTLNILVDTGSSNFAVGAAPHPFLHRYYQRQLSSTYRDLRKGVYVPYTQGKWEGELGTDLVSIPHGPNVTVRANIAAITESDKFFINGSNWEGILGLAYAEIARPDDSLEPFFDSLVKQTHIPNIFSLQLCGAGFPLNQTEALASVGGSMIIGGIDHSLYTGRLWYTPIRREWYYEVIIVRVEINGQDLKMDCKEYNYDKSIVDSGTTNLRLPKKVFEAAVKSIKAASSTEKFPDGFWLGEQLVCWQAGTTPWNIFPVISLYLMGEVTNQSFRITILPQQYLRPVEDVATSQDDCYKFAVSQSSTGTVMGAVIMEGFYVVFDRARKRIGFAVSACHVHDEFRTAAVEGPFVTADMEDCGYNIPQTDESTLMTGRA
T3 sequence (P56818 46-501): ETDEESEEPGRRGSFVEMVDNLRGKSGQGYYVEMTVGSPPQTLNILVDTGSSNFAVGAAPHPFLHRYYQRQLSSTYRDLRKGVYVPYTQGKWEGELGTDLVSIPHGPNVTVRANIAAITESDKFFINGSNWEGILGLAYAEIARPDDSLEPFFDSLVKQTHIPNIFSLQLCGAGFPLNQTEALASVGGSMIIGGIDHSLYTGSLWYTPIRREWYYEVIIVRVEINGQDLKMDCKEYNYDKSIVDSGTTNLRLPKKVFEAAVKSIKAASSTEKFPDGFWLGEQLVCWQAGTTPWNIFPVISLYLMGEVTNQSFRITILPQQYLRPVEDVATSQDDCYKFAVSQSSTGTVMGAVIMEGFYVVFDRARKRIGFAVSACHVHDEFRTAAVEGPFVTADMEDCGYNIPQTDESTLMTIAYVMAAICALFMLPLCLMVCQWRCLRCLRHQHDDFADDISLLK
T6 sequence (P02786 89-760 G142S): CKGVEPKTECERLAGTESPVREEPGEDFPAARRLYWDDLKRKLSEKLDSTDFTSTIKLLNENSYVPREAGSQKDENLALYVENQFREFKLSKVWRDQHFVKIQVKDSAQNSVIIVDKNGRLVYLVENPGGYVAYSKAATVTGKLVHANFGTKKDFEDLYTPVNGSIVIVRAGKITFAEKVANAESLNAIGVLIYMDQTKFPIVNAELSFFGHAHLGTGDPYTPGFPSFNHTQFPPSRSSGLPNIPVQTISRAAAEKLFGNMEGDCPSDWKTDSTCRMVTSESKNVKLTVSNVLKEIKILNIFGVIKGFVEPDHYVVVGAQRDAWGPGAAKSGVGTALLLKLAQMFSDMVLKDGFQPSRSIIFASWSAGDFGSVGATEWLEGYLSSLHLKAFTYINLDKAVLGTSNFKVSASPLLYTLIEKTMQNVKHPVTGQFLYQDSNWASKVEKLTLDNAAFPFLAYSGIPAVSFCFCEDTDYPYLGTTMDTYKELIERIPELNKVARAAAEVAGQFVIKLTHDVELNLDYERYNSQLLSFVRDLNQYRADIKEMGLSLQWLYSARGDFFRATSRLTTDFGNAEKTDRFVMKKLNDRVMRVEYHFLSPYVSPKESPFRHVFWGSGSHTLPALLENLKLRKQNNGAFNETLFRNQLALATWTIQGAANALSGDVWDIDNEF
T4 sequence (P56817 22-457 limits assumed): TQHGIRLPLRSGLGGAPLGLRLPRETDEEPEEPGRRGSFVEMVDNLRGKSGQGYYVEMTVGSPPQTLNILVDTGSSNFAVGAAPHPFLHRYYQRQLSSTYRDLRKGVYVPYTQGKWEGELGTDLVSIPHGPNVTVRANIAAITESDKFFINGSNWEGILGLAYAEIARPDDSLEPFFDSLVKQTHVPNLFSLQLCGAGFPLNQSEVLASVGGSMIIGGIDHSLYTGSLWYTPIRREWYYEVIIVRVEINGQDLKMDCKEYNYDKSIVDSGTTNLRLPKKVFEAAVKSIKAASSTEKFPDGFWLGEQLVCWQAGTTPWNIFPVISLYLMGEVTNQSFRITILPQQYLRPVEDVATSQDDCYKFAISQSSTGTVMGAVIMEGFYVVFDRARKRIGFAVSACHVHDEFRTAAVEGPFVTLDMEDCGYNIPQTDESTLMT

Kd [1]: < 0.27 nM
Kd [2]: < 0.38 nM
Kd [3]: < 0.38 nM
Kd [4]: < 0.4 nM
Kd [5]: 0.3 nM
Kd [6]: 0.65 nM
IC50, Abeta x-40 in mouse cortical neurons [7]: 6.48 nM
IC50, Abeta x-40 in mouse cortical neurons (5894*, second run) [7]: 5.43 nM
maximal % inhibition of Abeta x-40 [7]: 78%
% inhibition of BACE1 activity, short FRET substrate [8]: 69%
% inhibition of BACE1 activity, short FRET substrate [9]: 69%
Kd [10]: 2.95 nM
Kd [11]: 0.27 nM
Kd [12]: 0.86 nM
EC50, FRET short substrate [13]: 8.58 nM
EC50, HTRF long substrate [13]: 1.79 nM
B1: 5894 (antibody, V domains shown)
VH: QVQLVQSGAEVKKPGSSVKVSCKASGGTFSGYAISWVRQAPGQGLEWMGNIIPGFGTANYAQKFQGRVTITADESTSTAYMELSSLRSEDTAVYYCARSGGTKYGMLDVWGQGTMVTVSS
VL: EIVMTQSPATLSVSPGERATLSCRASQSVGSNLAWYQQKPGQAPRLLIYGASTRATGIPARFSGSGSGTEFTLTISSLQSEDFAVYYCQQLYTWPPRTFGGGTKVEIK
notes: anti-BACE1 IgG

Kd [1]: 0.27 nM
Kd [2]: 0.38 nM
IC50, Abeta x-40 in mouse cortical neurons [14]: 0.33 nM
IC50, Abeta x-40 in mouse cortical neurons (5905*, second run) [14]: 0.83 nM
maximal % inhibition of Abeta x-40 [14]: 65%
Kd [3]: 0.51 nM
Kd [4]: 0.4 nM
Kd [5]: 1.1 nM
Kd [6]: 1.1 nM
% inhibition of BACE1 activity, short FRET substrate [8]: 65%
% inhibition of BACE1 activity, short FRET substrate [9]: 72%
Kd [10]: 3.53 nM
Kd [11]: 1.3 nM
Kd [12]: 1.4 nM
EC50, FRET short substrate [13]: 1.33 nM
EC50, HTRF long substrate [13]: 3.91 nM
B2: 5905 (antibody, V domains shown)
VH: QLQLQESGPGLVKPSETLSLTCTVSGGSISWSSYYWSWIRQPPGKGLEWIGSIYRSGRTYYNPSLKSRVTISVDTSKNQFSLKLSSVTAADTAVYYCARVGHGISYFDLWGRGTLVTVSS
VL: B1 VL with M4L, V13L, G30S, N32Y, G50D, T53K, E70D, Q79E, S80P, L91V
notes: anti-BACE1 IgG

Kd [15]: 0.741 nM
koff [15]: 0.000845 s⁻¹
kon [15]: 1.14e+06 M⁻¹ s⁻¹
Kd [16]: 0.19 nM
koff [16]: 0.000313 s⁻¹
kon [16]: 1.65e+06 M⁻¹ s⁻¹
Cy/hu ratio [17]: 3.9
B3: Mu7A4.Fab (Fab, V domains shown)
VH: QVQLQQSGPELVRPGVSVKISCKGSGYTFTDYAMHWVKQSHAKSLEWIGGISTYFGRTNYNQKFKGRATMTVDKSSSTAYMELARLTSEDSALYYCARGLSGNYVMDYWGQGTSVTVSS
VL: DIVLTQSPASLAVSLGQRATISCRASESVDDYGNSFMHWYQQKPGQPPKLLIYRASNLESGIPARFSGSGSRTDFTLTINPVEADDVATYYCQQSNEAPPTFGGGTKLEIR
notes: Fab; also called mouse 7A4 Fab

koff [15]: 0.00244 s⁻¹
kon [15]: 98900 M⁻¹ s⁻¹
koff [16]: 0.000169 s⁻¹
kon [16]: 131000 M⁻¹ s⁻¹
Cy/hu ratio [17]: 19.1
B4: Hu16F6.v4.Fab (Fab, V domains shown)
VH: EVQLVESGPGLVKPSETLSLTCTVSGNSITSEYAWNWIRQPPGKGLEWIGYISYSGTTSYNPSLKSRVTISRDTSKNQLSLKLSSVTAADTAVYYCARYGYGNPATRYFDVWGQGTLVTVSS
VL: DIQMTQSPSSLSASVGDRVTITCRASKSISKYLAWYQQKPGKTNKLLLYSGSTLQSGVPSRFSGSGSGTDYTLTISSLQPEDFATYYCQQHNEYPWTFGQGTKVEIK
notes: Fab

EC50 [18]: 0.0508 µg/mL
EC50 [19]: 0.0145 µg/mL
Kd [20]: 61 nM
Kd [21]: 40 nM
Kd [22]: 412 nM
Kd [23]: 150 nM
B5: G93A (antibody, V domains shown)
VH: EVQLVQSGAEVKKPGASVKVSCKASGYTFTSYWMHWVRQAPGQRLEWIGEINPTNGRTNYIEKFKSRATLTVDKSASTAYMELSSLRSEDTAVYYCARGTRAYHYWGQGTMVTVSS
VL: DIQMTQSPSSLSASVGDRVTITCRASDNLYSNLAWYQQKPGKSPKLLVYDATNLADGVPSRFSGSGSGTDYTLTISSLQPEDFATYYCQHFWATPLTFGQGTKVEIK
notes: also called 15G11.v5 G93A (CDR-L3) IgG

koff [24]: 0.0329 s⁻¹
kon [24]: 313000 M⁻¹ s⁻¹
koff [25]: 0.0104 s⁻¹
kon [25]: 433000 M⁻¹ s⁻¹
Cy/hu ratio [26]: 4.4
B6: Hu15G11.HC51A Fab (Fab, V domains shown)
VH: B5 VH with I51A
VL: B5 VL with A93G
notes: Fab

koff [24]: 0.0099 s⁻¹
kon [24]: 304000 M⁻¹ s⁻¹
koff [25]: 0.00403 s⁻¹
kon [25]: 564000 M⁻¹ s⁻¹
Cy/hu ratio [26]: 4.6
B7: Hu15G11.HC34A Fab (Fab, V domains shown)
VH: B5 VH with M34A
VL: B5 VL with A93G
notes: Fab

koff [24]: 0.025 s⁻¹
kon [24]: 484000 M⁻¹ s⁻¹
koff [25]: 0.0115 s⁻¹
kon [25]: 890000 M⁻¹ s⁻¹
Cy/hu ratio [26]: 4
B8: Hu15G11.HC53A Fab (Fab, V domains shown)
VH: B5 VH with T54A
VL: B5 VL with A93G
notes: Fab; also called 15G11.53A Fab

EC50 [18]: 0.0406 µg/mL
EC50 [19]: 0.0106 µg/mL
Kd [20]: 57 nM
Kd [21]: 29 nM
Kd [22]: 258 nM
Kd [23]: 94 nM
B9: P95A (antibody, V domains shown)
VH: B5 VH
VL: B5 VL with A93G, P95A
notes: also called 15G11.v5 P95A (CDR-L3) IgG

Kd [27]: 1300 nM
Kd [28]: 245 nM
B10: G93A (Fab, V domains shown)
VH: B5 VH
VL: B5 VL
notes: also called 15G11.v5 G93A (CDR-L3) Fab

Kd [27]: 886 nM
Kd [28]: 170 nM
B11: P95A (Fab, V domains shown)
VH: B5 VH
VL: B5 VL with A93G, P95A
notes: also called 15G11.v5 P95A (CDR-L3) Fab

koff [15]: 0.00137 s⁻¹
kon [15]: 51100 M⁻¹ s⁻¹
koff [16]: 0.00019 s⁻¹
kon [16]: 60700 M⁻¹ s⁻¹
Cy/hu ratio [17]: 8.56
B12: Mu16F6.Fab (Fab, V domains shown)
VH: DVQLQESGPGLVKPSQSLSLTCTVTGNSITSEYAWNWIRQFPGNKLEWMGYISYSGTTSYNPSLKSRISITRDTSKNQLFLQLNSVTTEDTATYFCARYGYGNPATRYFDVWGAGTTVTVSS
VL: DVQITQSPSYLTASPGETITINCRASKSISKYLAWYQEKPGKTNKLLIYSGSTLQSGIPSRFSGSGSGTDFTLTISNLEPEDFAMYYCQQHNEYPWTFGGGTKLEIK
notes: Fab; also called mouse 16F6 Fab
